Measurements: publication PMC3540084

Legend:
[1] = target: T1, recombinant human caspase-6 (human) (UniProt P55212)
T1 sequence: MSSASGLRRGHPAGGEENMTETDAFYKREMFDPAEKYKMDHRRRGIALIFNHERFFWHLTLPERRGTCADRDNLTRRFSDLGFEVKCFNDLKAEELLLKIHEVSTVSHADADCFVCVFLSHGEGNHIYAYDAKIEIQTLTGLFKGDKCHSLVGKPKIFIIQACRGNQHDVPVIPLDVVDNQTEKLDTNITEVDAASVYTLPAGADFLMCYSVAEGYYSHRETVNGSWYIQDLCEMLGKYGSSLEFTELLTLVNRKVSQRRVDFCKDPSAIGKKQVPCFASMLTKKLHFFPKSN

[2] = target: recombinant human caspase-9 (human) (UniProt P55211)
[3] = target: T2, recombinant human caspase-3 (human) (UniProt P42574)
T2 sequence: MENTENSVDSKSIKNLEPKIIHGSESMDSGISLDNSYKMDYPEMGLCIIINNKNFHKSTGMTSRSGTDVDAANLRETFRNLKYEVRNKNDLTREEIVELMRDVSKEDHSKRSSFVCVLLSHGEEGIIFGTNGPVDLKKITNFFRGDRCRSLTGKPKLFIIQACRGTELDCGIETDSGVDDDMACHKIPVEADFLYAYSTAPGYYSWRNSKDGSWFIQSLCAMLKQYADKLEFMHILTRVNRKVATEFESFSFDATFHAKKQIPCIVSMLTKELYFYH

[4] = target: T3, recombinant human caspase-7 (human) (UniProt P55210)
T3 sequence: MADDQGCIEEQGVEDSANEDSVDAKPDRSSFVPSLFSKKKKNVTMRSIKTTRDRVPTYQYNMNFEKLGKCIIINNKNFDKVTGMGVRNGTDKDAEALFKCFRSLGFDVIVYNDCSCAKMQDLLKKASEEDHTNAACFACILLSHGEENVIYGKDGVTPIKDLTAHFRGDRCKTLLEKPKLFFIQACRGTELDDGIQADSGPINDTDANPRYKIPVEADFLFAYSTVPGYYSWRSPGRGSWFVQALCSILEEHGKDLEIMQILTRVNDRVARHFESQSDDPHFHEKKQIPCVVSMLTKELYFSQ

UniProt P55211, sequence (P55211 whole entry): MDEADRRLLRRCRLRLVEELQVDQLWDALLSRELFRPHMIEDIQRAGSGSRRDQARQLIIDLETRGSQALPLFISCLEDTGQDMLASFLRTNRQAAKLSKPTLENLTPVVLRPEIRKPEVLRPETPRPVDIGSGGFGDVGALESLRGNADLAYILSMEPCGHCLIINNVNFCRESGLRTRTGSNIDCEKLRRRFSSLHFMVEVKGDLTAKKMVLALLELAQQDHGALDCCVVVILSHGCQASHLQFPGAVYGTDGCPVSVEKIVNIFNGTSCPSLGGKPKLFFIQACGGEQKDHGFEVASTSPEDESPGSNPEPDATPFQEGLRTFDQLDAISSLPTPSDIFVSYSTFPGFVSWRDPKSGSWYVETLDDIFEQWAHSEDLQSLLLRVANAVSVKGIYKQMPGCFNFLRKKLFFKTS

i 0,5 of inhibition of rh-caspase-6 activity (release of AMC from Ac-DEVD-AMC, substrate at Km concentration, 22°C) [1]: 2.2 µM | i 0,5 of inhibition of rh-caspase-9 activity (release of AMC from Ac-LEHD-AMC, substrate at Km concentration, 22°C) [2]: 0.31 µM | percent inhibition of rh-caspase-9 activity by 100 nM IL-1Ra [2]: 41% | i 0,5 of inhibition of rh-caspase-3 activity (release of AMC from Ac-DEVD-AMC, substrate at Km concentration, 22°C) [3]: 2.5 µM | i 0,5 of inhibition of rh-caspase-7 activity (release of AMC from Ac-DEVD-AMC, substrate at Km concentration, 22°C) [4]: 1.3 µM
Substance: recombinant human IL-1Ra (from UniProt P18510 26-177) (natural protein)
